Measured values taken from US20210246166A1 (Bayer, published 2021).
Numbered stars: 1 amine (or outer) side, 2 acyl side, 3 side chain; on linkers, the order of the positions; unused ones are H or OH. Bridge positions count the residues as written; N and C are the ends. Square brackets hold non-standard residues; d marks the D form. Ends that are not written are not given here. X12 = (S)‑(trifluoromethyl)‑L‑cysteine, O=C([C@H](CSC(F)(F)F)N[*:1])[*:2]; Oic = O=C(O)[C@@H]1C[C@@H]2CCCC[C@@H]2N1; Nva(3-Et) = CCC(CC)[C@H](N)C(=O)O; tBuAla = CC(C)(C)C[C@H](N)C(=O)O; 4Pal = N[C@@H](Cc1ccncc1)C(=O)O; Gly(cBu) = N[C@H](C(=O)O)C1CCC1; Chg = N[C@H](C(=O)O)C1CCCCC1; Pen = CC(C)(S)[C@H](N)C(=O)O; 3Amb = NCc1cccc(C(=O)O)c1; NMeC = CN[C@@H](CS)C(=O)O; Nva = CCC[C@H](N)C(=O)O; Ac4c = NC1(C(=O)O)CCC1; PEG2 = NCCOCCOCCC(=O)O; Sar = CNCC(=O)O

T1: Recombinant human MASP1 enzyme (fragment corresponding to amino acids 297-699, C-terminal His Tag) (human, UniProt P48740 297-699)
T1 sequence: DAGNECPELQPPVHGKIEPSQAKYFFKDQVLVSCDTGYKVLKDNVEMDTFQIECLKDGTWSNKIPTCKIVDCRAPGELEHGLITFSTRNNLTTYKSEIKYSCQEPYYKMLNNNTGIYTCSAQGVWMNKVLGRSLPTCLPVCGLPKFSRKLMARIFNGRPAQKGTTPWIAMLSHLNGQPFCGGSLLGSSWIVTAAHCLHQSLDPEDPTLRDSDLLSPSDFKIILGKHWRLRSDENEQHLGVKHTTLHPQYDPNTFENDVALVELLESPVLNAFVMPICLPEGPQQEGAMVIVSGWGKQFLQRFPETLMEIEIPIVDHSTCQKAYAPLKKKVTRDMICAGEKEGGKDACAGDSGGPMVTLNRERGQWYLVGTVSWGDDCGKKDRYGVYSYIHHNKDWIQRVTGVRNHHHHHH


Key:
[1] = target: T1, Recombinant human MASP1 enzyme …; assay: cell-based or functional assay
[2] = target: Recombinant human MASP2 enzyme (fragment corresponding to amino acids 297-686, C-terminal His Tag) (human, UniProt O00187 297-686); assay: cell-based or functional assay
Sequence of Recombinant human MASP2 enzyme (fragment corresponding to amino acids 297-686, C-terminal His Tag) (O00187 other isoform, or with tags, fused parts or gaps limits assumed): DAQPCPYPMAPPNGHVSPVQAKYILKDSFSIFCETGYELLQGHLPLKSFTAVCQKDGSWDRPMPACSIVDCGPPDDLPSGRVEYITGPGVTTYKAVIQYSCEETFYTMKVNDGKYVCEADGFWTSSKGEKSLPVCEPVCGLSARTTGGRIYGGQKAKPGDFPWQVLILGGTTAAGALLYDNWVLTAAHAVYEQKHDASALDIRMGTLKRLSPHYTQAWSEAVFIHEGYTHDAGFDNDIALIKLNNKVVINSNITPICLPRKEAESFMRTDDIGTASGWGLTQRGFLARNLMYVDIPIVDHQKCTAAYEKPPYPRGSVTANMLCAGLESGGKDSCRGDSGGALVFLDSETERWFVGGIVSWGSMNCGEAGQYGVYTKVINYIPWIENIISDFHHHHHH

human MASP1 IC50 [1] [nM]	human MASP2 IC50 [2] [nM]	Binder
5.8	61	AICSRS[tBuAla]PPICIDD-OH (disulfide 3-11; N-terminus assumed; SMILES CC[C@H](C)[C@H](NC(=O)[C@H](C)N)C(=O)N[C@H]1CSSC[C@@H](C(=O)N[C@H](C(=O)N[C@@H](CC(=O)O)C(=O)N[C@@H](CC(=O)O)C(=O)O)[C@@H](C)CC)NC(=O)[C@H]([C@@H](C)CC)NC(=O)[C@@H]2CCCN2C(=O)[C@@H]2CCCN2C(=O)[C@H](CC(C)(C)C)NC(=O)[C@H](CO)NC(=O)[C@H](CCCNC(=N)N)NC(=O)[C@H](CO)NC1=O) [AIC+SRS-((tBu)A)-PPIC+IDD-OH]
6.4	16	[3Amb]ICSRS[tBuAla]PP[Pen]IP-NH2 (disulfide 3-10; N-terminus assumed; SMILES CC[C@H](C)[C@H](NC(=O)c1cccc(CN)c1)C(=O)N[C@H]1CSSC(C)(C)[C@@H](C(=O)N[C@H](C(=O)N2CCC[C@H]2C(N)=O)[C@@H](C)CC)NC(=O)[C@@H]2CCCN2C(=O)[C@@H]2CCCN2C(=O)[C@H](CC(C)(C)C)NC(=O)[C@H](CO)NC(=O)[C@H](CCCNC(=N)N)NC(=O)[C@H](CO)NC1=O) [(3-(Aminomethyl)benzoic acid)-IC+SRS-((tBu)A)-PP-(Pen)+IP-NH2]
6.3	220	[Nva]ICSRSLPPICIPD-NH2 (disulfide 3-11; N-terminus assumed; SMILES CCC[C@H](N)C(=O)N[C@H](C(=O)N[C@H]1CSSC[C@@H](C(=O)N[C@H](C(=O)N2CCC[C@H]2C(=O)N[C@@H](CC(=O)O)C(N)=O)[C@@H](C)CC)NC(=O)[C@H]([C@@H](C)CC)NC(=O)[C@@H]2CCCN2C(=O)[C@@H]2CCCN2C(=O)[C@H](CC(C)C)NC(=O)[C@H](CO)NC(=O)[C@H](CCCNC(=N)N)NC(=O)[C@H](CO)NC1=O)[C@@H](C)CC) [(Nva)-IC+SRSLPPIC+IPD-NH2]
6.2	180	[Sar]ICSRSLP[Oic]I[Pen]IPE-OH (disulfide 3-11; N-terminus assumed; SMILES CC[C@H](C)[C@H](NC(=O)CNC)C(=O)N[C@H]1CSSC(C)(C)[C@@H](C(=O)N[C@H](C(=O)N2CCC[C@H]2C(=O)N[C@@H](CCC(=O)O)C(=O)O)[C@@H](C)CC)NC(=O)[C@H]([C@@H](C)CC)NC(=O)[C@@H]2C[C@@H]3CCCC[C@@H]3N2C(=O)[C@@H]2CCCN2C(=O)[C@H](CC(C)C)NC(=O)[C@H](CO)NC(=O)[C@H](CCCNC(=N)N)NC(=O)[C@H](CO)NC1=O) [((N-Me)G)-IC+SRSLP-(Oic)-I-(Pen)+IPE-OH]
5.7	44	AICSRSLPP[Chg][Pen]IPD-NH2 (disulfide 3-11; N-terminus assumed; SMILES CC[C@H](C)[C@H](NC(=O)[C@H](C)N)C(=O)N[C@H]1CSSC(C)(C)[C@@H](C(=O)N[C@H](C(=O)N2CCC[C@H]2C(=O)N[C@@H](CC(=O)O)C(N)=O)[C@@H](C)CC)NC(=O)[C@H](C2CCCCC2)NC(=O)[C@@H]2CCCN2C(=O)[C@@H]2CCCN2C(=O)[C@H](CC(C)C)NC(=O)[C@H](CO)NC(=O)[C@H](CCCNC(=N)N)NC(=O)[C@H](CO)NC1=O) [AIC+SRSLPP-(Chg)-(Pen)+IPD-NH2]
6	740	GICSRS[tBuAla]P[Oic]I[NMeC]IPD-NH2 (disulfide 3-11; N-terminus assumed; SMILES CC[C@H](C)[C@H](NC(=O)CN)C(=O)N[C@H]1CSSC[C@@H](C(=O)N[C@H](C(=O)N2CCC[C@H]2C(=O)N[C@@H](CC(=O)O)C(N)=O)[C@@H](C)CC)N(C)C(=O)[C@H]([C@@H](C)CC)NC(=O)[C@@H]2C[C@@H]3CCCC[C@@H]3N2C(=O)[C@@H]2CCCN2C(=O)[C@H](CC(C)(C)C)NC(=O)[C@H](CO)NC(=O)[C@H](CCCNC(=N)N)NC(=O)[C@H](CO)NC1=O) [GIC+SRS-((tBu)A)-P-(Oic)-I-((N-Me)C)+IPD-NH2]
6.5	410	AICSRSLPPIC[Gly(cBu)]PD-NH2 (disulfide 3-11; N-terminus assumed; SMILES CC[C@H](C)[C@H](NC(=O)[C@H](C)N)C(=O)N[C@H]1CSSC[C@@H](C(=O)N[C@H](C(=O)N2CCC[C@H]2C(=O)N[C@@H](CC(=O)O)C(N)=O)C2CCC2)NC(=O)[C@H]([C@@H](C)CC)NC(=O)[C@@H]2CCCN2C(=O)[C@@H]2CCCN2C(=O)[C@H](CC(C)C)NC(=O)[C@H](CO)NC(=O)[C@H](CCCNC(=N)N)NC(=O)[C@H](CO)NC1=O) [AIC+SRSLPPIC+(Cbg)-PD-NH2]
5.7	74	[Sar]ICSRS[tBuAla]PPI[Pen]IP[PEG2]-NH2 (disulfide 3-11; N-terminus assumed; SMILES CC[C@H](C)[C@H](NC(=O)CNC)C(=O)N[C@H]1CSSC(C)(C)[C@@H](C(=O)N[C@H](C(=O)N2CCC[C@H]2C(=O)NCCOCCOCCC(N)=O)[C@@H](C)CC)NC(=O)[C@H]([C@@H](C)CC)NC(=O)[C@@H]2CCCN2C(=O)[C@@H]2CCCN2C(=O)[C@H](CC(C)(C)C)NC(=O)[C@H](CO)NC(=O)[C@H](CCCNC(=N)N)NC(=O)[C@H](CO)NC1=O) [((N-Me)G)-IC+SRS-((tBu)A)-PPI-(Pen)+IP-(PEG1(10 atoms))-NH2]
6.1	170	[Sar]GICSRS[tBuAla]PPI[Pen]IPD-NH2 (disulfide 4-12; N-terminus assumed; SMILES CC[C@H](C)[C@H](NC(=O)CNC(=O)CNC)C(=O)N[C@H]1CSSC(C)(C)[C@@H](C(=O)N[C@H](C(=O)N2CCC[C@H]2C(=O)N[C@@H](CC(=O)O)C(N)=O)[C@@H](C)CC)NC(=O)[C@H]([C@@H](C)CC)NC(=O)[C@@H]2CCCN2C(=O)[C@@H]2CCCN2C(=O)[C@H](CC(C)(C)C)NC(=O)[C@H](CO)NC(=O)[C@H](CCCNC(=N)N)NC(=O)[C@H](CO)NC1=O) [((N-Me)G)-GIC+SRS-((tBu)A)-PPI-(Pen)+IPD-NH2]
6.1	27	[Sar]ICSRS[X12]PPI[Pen]IP-NH2 (disulfide 3-11; N-terminus assumed; SMILES CC[C@H](C)[C@H](NC(=O)CNC)C(=O)N[C@H]1CSSC(C)(C)[C@@H](C(=O)N[C@H](C(=O)N2CCC[C@H]2C(N)=O)[C@@H](C)CC)NC(=O)[C@H]([C@@H](C)CC)NC(=O)[C@@H]2CCCN2C(=O)[C@@H]2CCCN2C(=O)[C@H](CSC(F)(F)F)NC(=O)[C@H](CO)NC(=O)[C@H](CCCNC(=N)N)NC(=O)[C@H](CO)NC1=O) [((N-Me)G)-IC+SRS-((S)-(trifluoromethyl)-L-cysteine)-PPI-(Pen)+IP-NH2]
5.8	51	AICSRSLPP[Nva(3-Et)]CIPD-NH2 (disulfide 3-11; N-terminus assumed; SMILES CCC(CC)[C@@H]1NC(=O)[C@@H]2CCCN2C(=O)[C@@H]2CCCN2C(=O)[C@H](CC(C)C)NC(=O)[C@H](CO)NC(=O)[C@H](CCCNC(=N)N)NC(=O)[C@H](CO)NC(=O)[C@@H](NC(=O)[C@@H](NC(=O)[C@H](C)N)[C@@H](C)CC)CSSC[C@@H](C(=O)N[C@H](C(=O)N2CCC[C@H]2C(=O)N[C@@H](CC(=O)O)C(N)=O)[C@@H](C)CC)NC1=O) [AIC+SRSLPP-((S)-2-amino-3-ethyl-pentanoic acid)-C+IPD-NH2]
5.7	15	[Ac4c]ICSRS[tBuAla]PPI[Pen]I-NH2 (disulfide 3-11; N-terminus assumed; SMILES CC[C@H](C)[C@H](NC(=O)[C@H]1NC(=O)[C@H]([C@@H](C)CC)NC(=O)[C@@H]2CCCN2C(=O)[C@@H]2CCCN2C(=O)[C@H](CC(C)(C)C)NC(=O)[C@H](CO)NC(=O)[C@H](CCCNC(=N)N)NC(=O)[C@H](CO)NC(=O)[C@@H](NC(=O)[C@@H](NC(=O)C2(N)CCC2)[C@@H](C)CC)CSSC1(C)C)C(N)=O) [(ACBA)-IC+SRS-((tBu)A)-PPI-(Pen)+I-NH2]
5.8	73	FICSRS[tBuAla]PPI[Pen]IPD-NH2 (disulfide 3-11; N-terminus assumed; SMILES CC[C@H](C)[C@H](NC(=O)[C@@H](N)Cc1ccccc1)C(=O)N[C@H]1CSSC(C)(C)[C@@H](C(=O)N[C@H](C(=O)N2CCC[C@H]2C(=O)N[C@@H](CC(=O)O)C(N)=O)[C@@H](C)CC)NC(=O)[C@H]([C@@H](C)CC)NC(=O)[C@@H]2CCCN2C(=O)[C@@H]2CCCN2C(=O)[C@H](CC(C)(C)C)NC(=O)[C@H](CO)NC(=O)[C@H](CCCNC(=N)N)NC(=O)[C@H](CO)NC1=O) [FIC+SRS-((tBu)A)-PPI-(Pen)+IPD-NH2]
6.4	65	[4Pal]ICSRS[tBuAla]PPI[Pen]IPD-NH2 (disulfide 3-11; N-terminus assumed; SMILES CC[C@H](C)[C@H](NC(=O)[C@@H](N)Cc1ccncc1)C(=O)N[C@H]1CSSC(C)(C)[C@@H](C(=O)N[C@H](C(=O)N2CCC[C@H]2C(=O)N[C@@H](CC(=O)O)C(N)=O)[C@@H](C)CC)NC(=O)[C@H]([C@@H](C)CC)NC(=O)[C@@H]2CCCN2C(=O)[C@@H]2CCCN2C(=O)[C@H](CC(C)(C)C)NC(=O)[C@H](CO)NC(=O)[C@H](CCCNC(=N)N)NC(=O)[C@H](CO)NC1=O) [(4-Pal)-IC+SRS-((tBu)A)-PPI-(Pen)+IPD-NH2]
